Test results as given in patent US20230093239 (published 2023).

Assays:
alpha-thrombin [1] = molecular target: T1, alpha-thrombin (Homo sapiens, UniProt P00734;P00734 P00734:328-363,P00734:364-622); assay: negative control on membrane-type surface stress sensor, used as reference for voltage difference; 240 nM thrombin in PBS
alpha-thrombin [2] = molecular target: T1, alpha-thrombin; assay: membrane-type surface stress sensor; voltage difference vs poly T control; 240 nM thrombin in PBS

Binder | binding result (alpha-thrombin [1]) | binding result (alpha-thrombin [2])
TTTTTTTTTTTTTTTTTTTT (ssDNA) [poly T control] | no binding | –
GGTTGGTGTGGTTGGTTTTT (ssDNA) [thrombin aptamer (15-mer with T5 tail)] | – | binds
